Experimental data as given in patent US10704064B2, “Recombinant yeast producing 3-hydroxypropionic acid and method for producing 3-hydroxypropionic acid using the same” (SK Innovation Co., Ltd., priority 2014, dated 2020).

Key:
[1] = test system: S. cerevisiae VSK-128 ACS2 deletion strain; assay: AADH in vivo growth assay, ACS2 deletion strain on glucose-based agar plates; type: cell-based
Description: All copies of the ACS2 gene were deleted from the industrial S. cerevisiae VSK-128 strain in order to generate a strain with a defective PDH-bypass that was incapable of growth on glucose-based medium. Expression vectors carrying the 25 different AADH variants were then transformed into this ACS2 deletion strain to evaluate their ability to recover the growth of this strain on glucose.
There was a good correlation between the in vitro AADH enzyme activity assays and the in vivo growth recovery analyses.

AADH = AADH in vitro enzyme activity assay from yeast cell lysates; type: biochemical; settings: in vitro, expressed in yeast
Procedure: AADH activity was measured as described by Kozak et al. (2014, Metab. Eng. 21:46-59) by monitoring the reduction of NAD^+ at 340 nm at 30° C. The yeast cells for the cell lysates were collected, washed with water, and then resuspended into lysis buffer containing 100 mM Tris-HCl buffer (pH 7.5) and 1×EDTA free protease inhibitor cocktail (Roche). The cells were lysed with glass beads in a Precellys 24 homogenizer at 5500 rpm for 3×40 seconds and kept on ice between rounds. Lysates were centrifuged at 16 000 g for 20 min at 4° C. and supernatants were collected. The total protein concentration was determined using the Bradford method.
The enzyme assay reaction mixture contained 0.1 mM Coenzyme A, 50 mM CHES buffer (pH 9.5), 0.8 mM NAD^+, 0.2 mM DTT and 10 μL of cell extract in a total reaction volume of 200 μL. The reaction was started by adding 10 mM of freshly prepared acetaldehyde solution and reduction of NAD^+ was followed with a Thermo Konelab 20XT analyser.
Five AADH genes were originally chosen (i.e. ADHEpm, ADHEec, EUTec, EUTdz and LIN1129li) and transformed into the CEN.PK lab strain. These AADHs were expressed from a multicopy plasmid where they were under control of the TEF1 promoter.
Twenty additional novel AADH genes were chosen from the genome mining analyses to be evaluated for expression and enzyme activity in yeast.

MCR [2] = assay: archaeal MCR activity assay in E. coli lysates (microtitre plate); type: biochemical; settings: E. coli cell lysate, NADPH or NADH
Procedure: (§1) pBAT T7 promoter based expression constructs were made for four different archaeal MCRs, Metallosphaera sedula (MCRms), Sulfolobus tokodai (MCRst), Candidatus caldiarchaeum (MCRcc), and Sulfolobales archaeon (MCRsa1).
Their activity was analyzed using the following assay conditions: 0.4 mM NAD(P)H; 0.15 mM Malonyl-CoA; Tris-HCl pH 7; 2 mM MgCl2. Assays on 20 times diluted lysates were performed in microtitre plate (MTP) format at RT. The oxidation of NADPHT or NADHT at A^365 in time was followed. […] However, the MCR activities were smaller than that measured for the tagged MCRca.

MCR [3] = assay: MCR enzyme assay from yeast cell lysates; type: biochemical; settings: NADPH as a cofactor
Procedure: The MCR enzyme activity was measured according to the method described by Chen et al. (2014, Metab. Eng. 22:104-109) with slight modifications. The method is based on monitoring the oxidation of NAD(P)H at 340 nm.
Cells were collected and washed with cold wash buffer containing 20 mM Tris-HCl (pH 7.5), 20 mM NaN3 and then resuspended in 1 mL of breaking buffer containing 50 mM HEPES (pH 7.5), 150 mM KCl, 1 mM DTT, 1 mM EDTA, 0.5% Triton X-100 and 1×EDTA free protease inhibitor cocktail (Roche). The cells were lysed with glass beads in a Precellys 24 homogenizer at 5500 rpm for 3×40 seconds and kept on ice between rounds. Lysates were centrifuged at 16 000 g for 20 min at 4° C. and supernatants were collected. The total protein concentration was determined using the Bradford method.
The MCR assay mixture contained 50 mM Tris-HCl buffer (pH 8.0), 5 mM MgCl2 and 0.3 mM NADPH or NADH. After adding 20 μL of cell lysate into a total reaction volume of 200 μL, the reaction was pre-incubated for five minutes at 30° C. after which the reaction was started by addition of 0.15 mM malonyl-CoA. The assay was monitored at 340 nm with a Thermo Konelab 20XT analyser.
The eight full-length Chloroflexus MCR homologues were truncated into their two functional domains and the MCR-specific domains were assayed for enzyme activity in yeast along with the six archaeal MCRs. […]

[4] = SDS-PAGE expression levels of MCR constructs in E. coli lysate
Description: as §1

B1: AADHmm: eutE type AADH of Morganella morganii SC01, GenBank EMP53767.1 (protein)
chain: MDQKEIENVVKAVLASMSAGTQPAAASAAPQQAAASQNNGFGVFESLDDAVLAAKEAQKSLKTVEMRNLCIGAIRRAATEHARELAVLAVEETGMGRVEDKLAKNLAQANGTPGVECLRPEVLTGDHGLTLIENAAWGVIASVTPSTNPAATAINNAISMIAGGNSVIFAPHPAAKKVSQRTITILNEAIVAAGGPNNLLVTVAKPDIETAQRLFKYPGIGLLVVTGGDAVVESARKHTNKRLIAAGAGNPPVVVDETADIERAAKAIVHGASFDNNIICADEKVLIAVDCIADKLITEMQRNHAVLLTREQSEKLIPVLLKNVDETGHGTVSRDWVGRDAAKIAAAIGMTVPADTRLLIAETDCKHPFAVTELMMPVLPIIRVKDVDQAIDLAVKLEGGCHHTAAMHSNNISNLNRMANAIDTSIFVKNGPCIAGLGLGGEGWTTMTITTPTGEGVTCARTFVRLRRCTMVDSFRIV
modifications: AADHmm
Q: For B1, which “recovery of the growth deficiency of the ACS2-deletion strain” value (from here on “recovery”) [1] is on record?
A: The value was “capable of recovering the growth deficiency”.

Q: And the AADH activity (AADH)?
A: The AADH activity was “shown to have AADH activity”.

B2: AADHvs: eutE type AADH of Vibrio sp. EJY3, GenBank AEX22176.1 (protein)
chain: MNEQEIAHAVENVLSKYTNVTAQNAEPVSYSSNASLENIVSQALAGNMVKQPETQTAPDLNSNIENIVSQILAENQAKPQSVQCQSANHGTTEYLGCFASMEEAISAASHAQVQYRHCTMGDRASFVKGIREVFTQDDVLEKISRMAVEETGMGNYADKLTKNRIAATKTPGIEDLTTSALSGDSGLTLTEFSAYGVIGSITPTTNPTETIINNSIGMLAAGNTVVYSPHPRSRNVSLVAVDLINRKLAELGAPANLVVTVLEPSIDNTNAMMNDPRVNMLVATGGPSIVKTVMSTGKKAIGAGAGNPPAVVDETANIEKAAKDIINGCAFDNNLPCIAEKEVIVVNEVADYLIHCMKKSGAYLLCDKQKIQQLQSLVLNEKGTGPNTSFVGKGARYILDKLNIQVSDDIKVILIETERNHPFVVHELMMPILPVVRVENVDEAIDLAIKVEHGNRHTAIMHSTNVEKLSKMARLIQTTIFVKNGPSYSGIGVGGEGHTTFTIAGPTGEGITSARSFARYRRCVMVEALNIR
modifications: AADHvs
Q: Which “recovery” value [1] does the source give for B2 here?
A: Its value is “capable of recovering the growth deficiency”.

Q: And the AADH activity (AADH)?
A: Its AADH activity is “shown to have AADH activity”.

B3: MCRsa1: archaeal malonyl-CoA reductase of Sulfolobales archaeon Acd1, WP_020198954.1 (protein)
chain: MRRTLKAAILGATGLVGIEYVRMLSQHPYIKPAYLAGKGSVGKAYSEVVRWQTVGQVPKEVADMPVLPTDVNEIKKAGVDIVFSPLPQGAAGPVEEEFAKAGFPVISNSPDHRFDPDVPLMIPEVNGHTASLIDEQKKRRDWSGFIVTTPLCTAQGIAIPLAPIYRDFRVDSVFITTMQSLSGEGYPGVASLDVVDNIKVLGDAYDAKTVKEVTRILSEVKRNVPGTMDELTLSATTHRIATIHGHYEVMYVTFKEDVKVEKVKETLANFKGEPQDMKLPTAPSRPILITELDNRPQPYFDRWAGDVPGMSVVVGRLKQVNNRTVRLVSLIHNTVRGAAGGGILVAEYLIEKGYIPK
modifications: Sulfolobales archaeon
Q: Which MCR activity (MCR [2]) does the source give for B3 here?
A: Its MCR activity is “showed the highest MCR activity”.

Q: What about the “MCR enzyme activity compared to the wild-type strain” value (MCR [3]) of the same molecule?
A: Its value is “higher than the wild-type strain”.

Q: And the expression level [4]?
A: The expression level was “highest expression levels”.

B4: AADHbw: eutE type AADH of Bilophila wadsworthia 3_1_6, GenBank EFV45545.1 (protein)
chain: MDVRQQDVERIVVEVLKKMMSDQPTAAATTVVAASGCDCGDFGLFDRLEDAVQAAEAAQKKISTVAMRDKIIAAIRKAGLENAKAFAEIAHNETGMGRVSDKIAKNILVCERTPGTECLSPMAISGDMGLTLIENAPWGVIASVTPSTNPTATVINNAISMIAGGNSVIFAPHPNAKRASQTAIQVLNKAIIEATGVANLLVAVKEPTIEVAQELFSHPRIKLLVVTGGEAVVAQARKVATMRLIAAGAGNPPVVVDETANIARAARSIYDGASFDNNIICADEKEIIAVDSIADQLKAEMKAIGAVEISLEQADAVARVVLRNYPQVEGGKAPNPNPKWVGRDAALIAKAAGIDVPDSCRLLIVDVKRDINHVFARVEQLMPVIPLLRAANVDEAIEWALILERGLSHTAGMHSRNIDNMDKMARAMNTSLFVKNGPHLAALGAGGEGWTTMTISTPTGEGVTCARSFVRLRRCCVVDNFRIV
modifications: AADHbw
Q: For B4, which “recovery” value [1] is on record?
A: The value was “capable of recovering the growth deficiency”.

Q: What about the AADH activity (AADH) of the same molecule?
A: The AADH activity was “shown to have AADH activity”.

B5: MCRcc: archaeal malonyl-CoA reductase of Candidatus Caldiarchaeum subterraneum, GenBank BAJ50751.1 (protein)
chain: MKTYSVAILGATGMVGQHYIRMLYRHPWFRITALTGKESVGRKYVEAVRGEAPEPPKEIAEMEVLPTDPKKVDADFVFSCLPTEAAREAEPKFAEAGFPVFSDAAAYRMEEDVPLIVPEINHDHLNMVHIQRKKRGWEGYIVTTPNCTTVGLVLPLQPLKQHLGVKKVIVTTMQAVSGAGYPGVASLSILGNVIPYISGEERKVETETAKILGRYGDGRFTHDSVEVHATCTRVPTLDGHMESIYLETAKPADEETVAELLAEYVSLPQELNLPTAPARPIVVRRELDRPQTRIDVDAGTVPGMSVSVGRIRVNGEKVRFISLSHNLIRGAAGGTILTAELARHMGLLGE
modifications: Candidatus Caldiarchaeum
Q: With B5 as the molecule, how does the MCR activity (MCR [2]) read?
A: Its MCR activity is “No activity on NADPH or NADH could be measured”.

Q: And the expression level [4]?
A: The expression level was “could not be expressed in a soluble form”.
